The text below walks through data of the Human Domainome abundance scans (Beltran et al. 2025).

B1: Retinoic acid receptor beta, residues 85 to 161; numbered along this chain, P10826 (parent)
chain: YKPCFVCQDKSSGYHYGVSACEGCKGFFRRSIQKNMIYTCHRDKNCVINKVTRNRCQYCRLQKCFEVGMSKESVRND

± gives the uncertainty stated by the source.

The series covers variants of B1. Put plainly: abundance fitness (aPCA) (normalised: wild type 0, dead -1); higher = more abundant; growth selection in yeast, the domain comes from the species named. Particulars: Homo sapiens.
As for YGPCFVCQDKSSGYHYGVSACEGCKGFFRRSIQKNMIYTCHRDKNCVINKVTRNRCQYCRLQKCFEVGMSKESVRND, the abundance fitness is -0.182 ± 0.05.
For the variant YDPCFVCQDKSSGYHYGVSACEGCKGFFRRSIQKNMIYTCHRDKNCVINKVTRNRCQYCRLQKCFEVGMSKESVRND, the abundance fitness was 0.017 ± 0.088.
Turning to YLPCFVCQDKSSGYHYGVSACEGCKGFFRRSIQKNMIYTCHRDKNCVINKVTRNRCQYCRLQKCFEVGMSKESVRND, the abundance fitness is -0.162 ± 0.064.
As for YEPCFVCQDKSSGYHYGVSACEGCKGFFRRSIQKNMIYTCHRDKNCVINKVTRNRCQYCRLQKCFEVGMSKESVRND, the abundance fitness is -0.285 ± 0.081.
Turning to YWPCFVCQDKSSGYHYGVSACEGCKGFFRRSIQKNMIYTCHRDKNCVINKVTRNRCQYCRLQKCFEVGMSKESVRND, the abundance fitness was -0.308 ± 0.093.
As to YQPCFVCQDKSSGYHYGVSACEGCKGFFRRSIQKNMIYTCHRDKNCVINKVTRNRCQYCRLQKCFEVGMSKESVRND, the abundance fitness was found to be 0.052 ± 0.073.
With YPPCFVCQDKSSGYHYGVSACEGCKGFFRRSIQKNMIYTCHRDKNCVINKVTRNRCQYCRLQKCFEVGMSKESVRND, the abundance fitness was -0.169 ± 0.11.
For YHPCFVCQDKSSGYHYGVSACEGCKGFFRRSIQKNMIYTCHRDKNCVINKVTRNRCQYCRLQKCFEVGMSKESVRND, the abundance fitness is 0.091 ± 0.11.
Under YAPCFVCQDKSSGYHYGVSACEGCKGFFRRSIQKNMIYTCHRDKNCVINKVTRNRCQYCRLQKCFEVGMSKESVRND stands -0.289 ± 0.082.
Under YYPCFVCQDKSSGYHYGVSACEGCKGFFRRSIQKNMIYTCHRDKNCVINKVTRNRCQYCRLQKCFEVGMSKESVRND stands -0.1 ± 0.092; under YIPCFVCQDKSSGYHYGVSACEGCKGFFRRSIQKNMIYTCHRDKNCVINKVTRNRCQYCRLQKCFEVGMSKESVRND, -0.144 ± 0.093; under YNPCFVCQDKSSGYHYGVSACEGCKGFFRRSIQKNMIYTCHRDKNCVINKVTRNRCQYCRLQKCFEVGMSKESVRND, 0.162 ± 0.065.
Take YMPCFVCQDKSSGYHYGVSACEGCKGFFRRSIQKNMIYTCHRDKNCVINKVTRNRCQYCRLQKCFEVGMSKESVRND: the abundance fitness was -0.074 ± 0.073.
As to YSPCFVCQDKSSGYHYGVSACEGCKGFFRRSIQKNMIYTCHRDKNCVINKVTRNRCQYCRLQKCFEVGMSKESVRND, the abundance fitness is -0.068 ± 0.057.
Turning to YFPCFVCQDKSSGYHYGVSACEGCKGFFRRSIQKNMIYTCHRDKNCVINKVTRNRCQYCRLQKCFEVGMSKESVRND, the abundance fitness was -0.266 ± 0.29.
For the variant YVPCFVCQDKSSGYHYGVSACEGCKGFFRRSIQKNMIYTCHRDKNCVINKVTRNRCQYCRLQKCFEVGMSKESVRND, the abundance fitness is -0.104 ± 0.052.
In the case of YRPCFVCQDKSSGYHYGVSACEGCKGFFRRSIQKNMIYTCHRDKNCVINKVTRNRCQYCRLQKCFEVGMSKESVRND, the abundance fitness is -0.282 ± 0.057.
In the case of YKPVFVCQDKSSGYHYGVSACEGCKGFFRRSIQKNMIYTCHRDKNCVINKVTRNRCQYCRLQKCFEVGMSKESVRND, the abundance fitness was -0.807 ± 0.12.
For YKPTFVCQDKSSGYHYGVSACEGCKGFFRRSIQKNMIYTCHRDKNCVINKVTRNRCQYCRLQKCFEVGMSKESVRND the value was -1.26 ± 0.39; for YKPAFVCQDKSSGYHYGVSACEGCKGFFRRSIQKNMIYTCHRDKNCVINKVTRNRCQYCRLQKCFEVGMSKESVRND, -0.691 ± 0.14.
Regarding YKPGFVCQDKSSGYHYGVSACEGCKGFFRRSIQKNMIYTCHRDKNCVINKVTRNRCQYCRLQKCFEVGMSKESVRND, the abundance fitness was -0.859 ± 0.096.
For YKPWFVCQDKSSGYHYGVSACEGCKGFFRRSIQKNMIYTCHRDKNCVINKVTRNRCQYCRLQKCFEVGMSKESVRND the value was -0.954 ± 0.22; for YKPFFVCQDKSSGYHYGVSACEGCKGFFRRSIQKNMIYTCHRDKNCVINKVTRNRCQYCRLQKCFEVGMSKESVRND, -0.687 ± 0.25; for YKPMFVCQDKSSGYHYGVSACEGCKGFFRRSIQKNMIYTCHRDKNCVINKVTRNRCQYCRLQKCFEVGMSKESVRND, -0.754 ± 0.16.
For YKPLFVCQDKSSGYHYGVSACEGCKGFFRRSIQKNMIYTCHRDKNCVINKVTRNRCQYCRLQKCFEVGMSKESVRND the value was -0.778 ± 0.11.
As for YKPRFVCQDKSSGYHYGVSACEGCKGFFRRSIQKNMIYTCHRDKNCVINKVTRNRCQYCRLQKCFEVGMSKESVRND, the abundance fitness is -0.827 ± 0.088.
Turning to YKPPFVCQDKSSGYHYGVSACEGCKGFFRRSIQKNMIYTCHRDKNCVINKVTRNRCQYCRLQKCFEVGMSKESVRND, the abundance fitness is -0.428 ± 0.11.
With YKPDFVCQDKSSGYHYGVSACEGCKGFFRRSIQKNMIYTCHRDKNCVINKVTRNRCQYCRLQKCFEVGMSKESVRND, the abundance fitness is -0.715 ± 0.17.
Consider YKPIFVCQDKSSGYHYGVSACEGCKGFFRRSIQKNMIYTCHRDKNCVINKVTRNRCQYCRLQKCFEVGMSKESVRND, for which the abundance fitness was -0.917 ± 0.42.
Consider YKPNFVCQDKSSGYHYGVSACEGCKGFFRRSIQKNMIYTCHRDKNCVINKVTRNRCQYCRLQKCFEVGMSKESVRND, for which the abundance fitness was -0.731 ± 0.43.
For YKPQFVCQDKSSGYHYGVSACEGCKGFFRRSIQKNMIYTCHRDKNCVINKVTRNRCQYCRLQKCFEVGMSKESVRND the value was -0.889 ± 0.27; for YKPYFVCQDKSSGYHYGVSACEGCKGFFRRSIQKNMIYTCHRDKNCVINKVTRNRCQYCRLQKCFEVGMSKESVRND, -0.592 ± 0.14.
Consider YKRCFVCQDKSSGYHYGVSACEGCKGFFRRSIQKNMIYTCHRDKNCVINKVTRNRCQYCRLQKCFEVGMSKESVRND, for which the abundance fitness is -0.321 ± 0.051.
In the case of YKYCFVCQDKSSGYHYGVSACEGCKGFFRRSIQKNMIYTCHRDKNCVINKVTRNRCQYCRLQKCFEVGMSKESVRND, the abundance fitness stood at 0.174 ± 0.11.
Regarding YKWCFVCQDKSSGYHYGVSACEGCKGFFRRSIQKNMIYTCHRDKNCVINKVTRNRCQYCRLQKCFEVGMSKESVRND, the abundance fitness was -0.223 ± 0.064.
With YKVCFVCQDKSSGYHYGVSACEGCKGFFRRSIQKNMIYTCHRDKNCVINKVTRNRCQYCRLQKCFEVGMSKESVRND, the abundance fitness was -0.023 ± 0.051.
Under YKDCFVCQDKSSGYHYGVSACEGCKGFFRRSIQKNMIYTCHRDKNCVINKVTRNRCQYCRLQKCFEVGMSKESVRND stands 0.225 ± 0.089; under YKHCFVCQDKSSGYHYGVSACEGCKGFFRRSIQKNMIYTCHRDKNCVINKVTRNRCQYCRLQKCFEVGMSKESVRND, 0.006 ± 0.088; under YKCCFVCQDKSSGYHYGVSACEGCKGFFRRSIQKNMIYTCHRDKNCVINKVTRNRCQYCRLQKCFEVGMSKESVRND, -0.101 ± 0.094.
Under YKQCFVCQDKSSGYHYGVSACEGCKGFFRRSIQKNMIYTCHRDKNCVINKVTRNRCQYCRLQKCFEVGMSKESVRND stands 0.079 ± 0.056; under YKLCFVCQDKSSGYHYGVSACEGCKGFFRRSIQKNMIYTCHRDKNCVINKVTRNRCQYCRLQKCFEVGMSKESVRND, 0.027 ± 0.048.
Under YKKCFVCQDKSSGYHYGVSACEGCKGFFRRSIQKNMIYTCHRDKNCVINKVTRNRCQYCRLQKCFEVGMSKESVRND stands 0.048 ± 0.066.
For YKFCFVCQDKSSGYHYGVSACEGCKGFFRRSIQKNMIYTCHRDKNCVINKVTRNRCQYCRLQKCFEVGMSKESVRND, the abundance fitness is 0.037 ± 0.14.
With YKACFVCQDKSSGYHYGVSACEGCKGFFRRSIQKNMIYTCHRDKNCVINKVTRNRCQYCRLQKCFEVGMSKESVRND, the abundance fitness came out at 0.064 ± 0.043.
For YKNCFVCQDKSSGYHYGVSACEGCKGFFRRSIQKNMIYTCHRDKNCVINKVTRNRCQYCRLQKCFEVGMSKESVRND the value was 0.162 ± 0.092.
Under YKICFVCQDKSSGYHYGVSACEGCKGFFRRSIQKNMIYTCHRDKNCVINKVTRNRCQYCRLQKCFEVGMSKESVRND stands -0.042 ± 0.17; under YKECFVCQDKSSGYHYGVSACEGCKGFFRRSIQKNMIYTCHRDKNCVINKVTRNRCQYCRLQKCFEVGMSKESVRND, 0.136 ± 0.055; under YKSCFVCQDKSSGYHYGVSACEGCKGFFRRSIQKNMIYTCHRDKNCVINKVTRNRCQYCRLQKCFEVGMSKESVRND, 0.031 ± 0.055.
Under QKPCFVCQDKSSGYHYGVSACEGCKGFFRRSIQKNMIYTCHRDKNCVINKVTRNRCQYCRLQKCFEVGMSKESVRND stands -0.132 ± 0.17; under MKPCFVCQDKSSGYHYGVSACEGCKGFFRRSIQKNMIYTCHRDKNCVINKVTRNRCQYCRLQKCFEVGMSKESVRND, 0.067 ± 0.12.
Take RKPCFVCQDKSSGYHYGVSACEGCKGFFRRSIQKNMIYTCHRDKNCVINKVTRNRCQYCRLQKCFEVGMSKESVRND: the abundance fitness is -0.239 ± 0.065.
Under VKPCFVCQDKSSGYHYGVSACEGCKGFFRRSIQKNMIYTCHRDKNCVINKVTRNRCQYCRLQKCFEVGMSKESVRND stands 0.158 ± 0.054; under TKPCFVCQDKSSGYHYGVSACEGCKGFFRRSIQKNMIYTCHRDKNCVINKVTRNRCQYCRLQKCFEVGMSKESVRND, -0.109 ± 0.11; under LKPCFVCQDKSSGYHYGVSACEGCKGFFRRSIQKNMIYTCHRDKNCVINKVTRNRCQYCRLQKCFEVGMSKESVRND, -0.086 ± 0.067.
WKPCFVCQDKSSGYHYGVSACEGCKGFFRRSIQKNMIYTCHRDKNCVINKVTRNRCQYCRLQKCFEVGMSKESVRND: the abundance fitness is -0.221 ± 0.081.
For the variant NKPCFVCQDKSSGYHYGVSACEGCKGFFRRSIQKNMIYTCHRDKNCVINKVTRNRCQYCRLQKCFEVGMSKESVRND, the abundance fitness is 0.255 ± 0.07.
Under KKPCFVCQDKSSGYHYGVSACEGCKGFFRRSIQKNMIYTCHRDKNCVINKVTRNRCQYCRLQKCFEVGMSKESVRND stands 0.193 ± 0.13; under YKPCHVCQDKSSGYHYGVSACEGCKGFFRRSIQKNMIYTCHRDKNCVINKVTRNRCQYCRLQKCFEVGMSKESVRND, -0.435 ± 0.13.
Under YKPCCVCQDKSSGYHYGVSACEGCKGFFRRSIQKNMIYTCHRDKNCVINKVTRNRCQYCRLQKCFEVGMSKESVRND stands -0.244 ± 0.087; under YKPCEVCQDKSSGYHYGVSACEGCKGFFRRSIQKNMIYTCHRDKNCVINKVTRNRCQYCRLQKCFEVGMSKESVRND, -0.38 ± 0.071.
As for YKPCGVCQDKSSGYHYGVSACEGCKGFFRRSIQKNMIYTCHRDKNCVINKVTRNRCQYCRLQKCFEVGMSKESVRND, the abundance fitness was -0.118 ± 0.04.
For the variant YKPCNVCQDKSSGYHYGVSACEGCKGFFRRSIQKNMIYTCHRDKNCVINKVTRNRCQYCRLQKCFEVGMSKESVRND, the abundance fitness is -0.39 ± 0.099.
Under YKPCRVCQDKSSGYHYGVSACEGCKGFFRRSIQKNMIYTCHRDKNCVINKVTRNRCQYCRLQKCFEVGMSKESVRND stands -0.421 ± 0.052.
Consider YKPCQVCQDKSSGYHYGVSACEGCKGFFRRSIQKNMIYTCHRDKNCVINKVTRNRCQYCRLQKCFEVGMSKESVRND, for which the abundance fitness was -0.046 ± 0.067.
In the case of YKPCAVCQDKSSGYHYGVSACEGCKGFFRRSIQKNMIYTCHRDKNCVINKVTRNRCQYCRLQKCFEVGMSKESVRND, the abundance fitness came out at 0.053 ± 0.052.
For YKPCLVCQDKSSGYHYGVSACEGCKGFFRRSIQKNMIYTCHRDKNCVINKVTRNRCQYCRLQKCFEVGMSKESVRND, the abundance fitness was -0.076 ± 0.045.
For the variant YKPCDVCQDKSSGYHYGVSACEGCKGFFRRSIQKNMIYTCHRDKNCVINKVTRNRCQYCRLQKCFEVGMSKESVRND, the abundance fitness was -0.314 ± 0.081.
Consider YKPCPVCQDKSSGYHYGVSACEGCKGFFRRSIQKNMIYTCHRDKNCVINKVTRNRCQYCRLQKCFEVGMSKESVRND, for which the abundance fitness worked out at 0.076 ± 0.071.
Under YKPCMVCQDKSSGYHYGVSACEGCKGFFRRSIQKNMIYTCHRDKNCVINKVTRNRCQYCRLQKCFEVGMSKESVRND stands -0.155 ± 0.065.
YKPCKVCQDKSSGYHYGVSACEGCKGFFRRSIQKNMIYTCHRDKNCVINKVTRNRCQYCRLQKCFEVGMSKESVRND: the abundance fitness was -0.418 ± 0.08.
On to YKPCIVCQDKSSGYHYGVSACEGCKGFFRRSIQKNMIYTCHRDKNCVINKVTRNRCQYCRLQKCFEVGMSKESVRND, for which the abundance fitness is -0.022 ± 0.073.
